According to paper PMC8810934:

Target: F-actin in live HEK293T cells (human (endogenous in HEK293T)) (UniProt P60709)
Assay: FRET or BRET; live HEK293T cells co-transfected with ABD-mEGFP (donor) and Lifeact-mCherry (acceptor, on actin filaments); harvested 24 h after transfection; FRET efficiency from mEGFP fluorescence lifetime (time-correlated single photon counting); n = 3

FRET efficiency: 8.4%
Substance: L253P β-III-spectrin ABD fused at the C-terminus to mEGFP (domain or fragment)
